Test results reported in IntAct's records for PubMed 20124439.

B1: Glycosylphosphatidylinositol-anchored high density lipoprotein-binding protein 1 (Homo sapiens), Q8IV16 (parent)
chain: MKALGAVLLALLLFGRPGRGQTQQEEEEEDEDHGPDDYDEEDEDEVEEEETNRLPGGRSRVLLRCYTCKSLPRDERCNLTQNCSHGQTCTTLIAHGNTESGLLTTHSTWCTDSCQPITKTVEGTQVTMTCCQSSLCNVPPWQSSRVQDPTGKGAGGPRGSSETVGAALLLNLLAGLGAMGARRP
partner: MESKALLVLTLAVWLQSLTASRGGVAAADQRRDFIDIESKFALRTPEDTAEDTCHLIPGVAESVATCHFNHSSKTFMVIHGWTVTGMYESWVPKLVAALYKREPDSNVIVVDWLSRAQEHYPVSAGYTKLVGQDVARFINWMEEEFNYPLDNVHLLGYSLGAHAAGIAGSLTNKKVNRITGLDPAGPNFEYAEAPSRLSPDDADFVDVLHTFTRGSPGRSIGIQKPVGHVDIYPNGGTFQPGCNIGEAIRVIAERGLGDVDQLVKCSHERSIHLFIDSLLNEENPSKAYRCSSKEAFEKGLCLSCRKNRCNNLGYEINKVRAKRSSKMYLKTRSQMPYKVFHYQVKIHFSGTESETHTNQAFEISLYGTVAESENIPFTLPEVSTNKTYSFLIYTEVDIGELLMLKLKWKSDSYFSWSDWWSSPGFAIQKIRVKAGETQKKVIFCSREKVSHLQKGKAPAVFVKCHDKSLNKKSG

Variants of: B1
Settings: with lipl_human LPL

| effect of a mutation on the interaction | Variant |
| --- | --- |
| decreasing interaction | MKALGAVLLALLLFGRPGRGQTQQEEEEEDEDHGPDDYDEEDEDEVEEEETNRLPGGRSRVLLRCYTCKSLPRDERCNLTQNCSHGQTCTTLIAHGNTESGLLTTHSTWCTDSCPPITKTVEGTQVTMTCCQSSLCNVPPWQSSRVQDPTGKGAGGPRGSSETVGAALLLNLLAGLGAMGARRP [Q115P] |
| decreasing interaction | MKALGAVLLALLLFGRPGRGQTQQEEEEEDEDHGPDDYDEEDEDEVEEEETNRLPGGRSRVLLRYYTCKSLPRDERCNLTQNCSHGQTCTTLIAHGNTESGLLTTHSTWCTDSCQPITKTVEGTQVTMTCCQSSLCNVPPWQSSRVQDPTGKGAGGPRGSSETVGAALLLNLLAGLGAMGARRP [C65Y] |
